Columns and labels:
[1] = test system: neonatal rat cardiac fibroblasts; assay: [3H]Thymidine incorporation in neonatal rat fibroblasts; format: cell-based; details: adenovirally transduced Flag-RKIP, 0.1% FCS, 96 h
[2] = test system: neonatal rat cardiomyocytes (NRCM); assay: Contractile activity of neonatal rat cardiomyocytes; format: cell-based; details: in the presence of isoprenaline (50 nM), 33° C., beats per minute
Description: NRCM were cultured for 24 h and transduced as indicated with a control virus (LacZ) or a virus encoding RKIP-wt and/or treated with rituximab as indicated. The spontaneous contractions were measured at 33° C. for one minute and normalized for each experiment to LacZ under unstimulated conditions. NRCM were then stimulated with isoproterenol (50 nM) and after 2 min contractions were counted again. SEM; *, p<0.0001, n=5
Neonatal rat cardiomyocytes were isolated as described (Lorenz et al. Nature 2003, 426:574-579; Vidal et al., Cardiovasc. Res. 2012, 96:255-264). Cardiomyocytes were transduced by adenoviruses or treated with indicated antibodies. To monitor the contractile activity of cardiomyocytes, live cells were examined on a Zeiss Axiovert 135 microscope.

B1: RKIP: Raf kinase inhibitor protein, overexpressed in cells by adenoviral transduction (protein, UniProt P30086 2-187, looked up)
Phosphatidylethanolamine-bindi …: PVDLSKWSGPLSLQEVDEQPQHPLHVTYAGAAVDELGKVLTPTQVKNRPTSISWDGLDSGKLYTLVLTDPDAPSRKDPKYREWHHFLVVNMKGNDISSGTVLSDYVGSGPPKGTGLHRYVWLVYEQDRPLKCDEPILSNRSGDHRGKFKVASFRKKYELRAPVAGTCYQAEWDDYVPKLYEQLSGK
modifications: Flag tag
[1]
  proliferation ([3H]thymidine incorporation): minor but significant anti-proliferative effect
[2]
  NRCM contractility: increased NRCM contractility
